The series in a line: yeast display, Sf9 membrane polyspecificity reagent, FACS + sequencing; frameworks hold sequencing errors. Put shortly:
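Genes from sorted yeast were amplified by colony PCR, read by MiSeq 2 × 250 sequencing and filtered on CDR length. These cells carried a synthetic nanobody library in Saccharomyces cerevisiae BJ5465 and were sorted by FACS into low and high (top ~1%) gates on anti-HA and streptavidin fluorescence. Polyreactivity is labelled according to the gate of origin.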
As to “QVQLVESGGRLVQAGGSLRLSCAAAAITFYLYAMGRYRQAPGKERELVAAISSSGGSTYYADSVKGRFTISRDNAKNTVYLQINSLKPEDTAVYYCNARRRTVPYRYDYWGQGTQVTVSS”, the “polyreactivity (PSR sort gate)” value is given as “high polyreactivity”.
In the case of “QVQLVESGGGLVQAGGSLRLSCAASGFTFRFYAMGWYRQAPGKERELVAVITSRGTRTYYADSVKGRFTISRDNAKNTVYLQMNSLKPEDTAVYFCAKDFAFNGGISKYDYWGQGTQVTVSS” it was “high polyreactivity”; in that of “QVQHVESGGGLVQAGGSLRLSCAASGSIFRKNAMGWYRQAPGKERELVAAISSGGGGTYYADSVKGRFTISRDNAKNTVYLQMNSLKPEDTAVFYCNKREGKGGNTKYDYWGQGTQVTVSS”, “low polyreactivity”.
Next, “QVQLQESGGGLVQAGGILRLSCASCGNIIPSAVMVWYRQALGKEREFVATINSGSNTYYADSVKGRFTISRDNAKITVYQQMNILKLEDTAVYYCAAYFKLPAWHTYWGQGTQVTVSS”: “low polyreactivity”; “QVQLVESGGGLVQEGGSLRLSCASSGFTFAYNAMVLYRQAPGKERELVAGINSSGDGTYYADSVKGRFTISRDNAKNTVYLQMNSLKPEETAVYYCAADYTRFYPDGSDVDYDYWGQGTQVTVSS”: “low polyreactivity”.
In the case of “QVQLVESGGGLVQAGGSLRLSCAASGSTFFSKAMGWSRQEPGKERELVAAISRSGATTSYADSVKGRFTISRDNAKNTVYLQMNSLKPEDTAVYYCAVGRRYYQDYDYSGQGTQVTVSS” it was “high polyreactivity”; in that of “QVQLVESGGGLFQAGGSLRLSCAPSGRIFTTYAMGWYRQAPGKDRELVAAISRSGGSSYYADSVKGRFTISRDNAKNTVYLQMKSLKQEDTAVYFCAAVPTSNSFRSSFYNWGQGTQVTVSS”, “high polyreactivity”; in that of “QVQLVESGGGLVQAGGSLRLSCAASGITFGDNAMGWYRQAPGKERELVAAITLSDVDTYADSVKGRFTISRDNAKNTVYLQMNSLKPEDTAVYYCAADYDFFSSKRFDYWGQGTQVTVSS”, “low polyreactivity”.
Take “QVQLVESGGGLVQAGGSLRLSCAASGSIFQYYVMGWYRQAPGKERELDAAIRRSGTTYYADSVKGRFTISRDNAKNTVYLQMNSLKPEDTAVYYCNADSIYYYYLIEYEYWGQGSQVTVSS”: the “polyreactivity (PSR sort gate)” value is “low polyreactivity”.
Next, “QVQLVESGGGLVQAGGSLRLSCAASGRIFRYYAMGWYRQAPGKERELVAAISWSGGRTYYADSVKGRFTISRDNAKNSVYLQMNSLIPEDTAVFYCYAGYLYPGYFVREYDYWGQGTQVTVSS”: “high polyreactivity”; “QVQLVESGGGLVQAGGSLRLSCAASGRTFDHYAMGWYIQAPGKERELVAAISNSDGSTNYADSVKGRFTISRDNAMNTVYLQMNSLKPEDTAVYYCNKLYRGGWYDYWGLGTQVTVSS”: “low polyreactivity”.
On to “QVQLVESGGGLVQAGGSLRLSCAASGSIFCYNTMGWYRQAPGKERELVAAITFSGGSTYYADSVKGRFTISRDNAKNTVYLKMNSLKPEDTAVYYCAAVFYSAVGYYYWGQGTQVTVSS”, for which the “polyreactivity (PSR sort gate)” value is reported as “low polyreactivity”.
Next, “QVQLVESGGGLVQAGGSLRLSCAASGFTFGQYAMGWYRQAPGKERELVAAITGSGGRTYYADSVKGRFTISRDNAKNTVYLQMNSLKPEDTAVYYCNARVPLRHYSNYYWGQGTQVTVSS”: “high polyreactivity”; “QVQLVESGGGLVQAGGSLRLSCAASGFTIYNNVMVWYRQAPGKERELVAAITSSGGRTYYADSVKGRFTISRDIAKNTVYLQMNSLKPEDTAVYYCNALYFRKGGYWGQGTQVTVSS”: “high polyreactivity”; “QVQLVESGGGLVQAGGSLRLSCAASGFIFEYNTMGWYRQAPGKERELVAAISRRGGSTYYADSVKGRFTISRDNAKNTVYLQMKSLKPEDTAVYYCATDPGARVHYPTGDYWGQGTQVTVSS”: “high polyreactivity”.
Next, “QVQLVESGGGLVQAGGSLRLSCAASGSTFGSYAMGWYRQAPGKERELVAAISWNGGRTYYADSVKGRFTISRDNAKNTVYFQRNSLKPEDTAVYYCAKVVKYQSGGGLEYWGQGTQVTVSS”: “high polyreactivity”.

The values above are taken from the nanobody polyreactivity screen of Harvey et al. (2022).
